Key:
[1] = biological target: T1, AhrC (Streptococcus mutans UA159) (UniProt Q8DVB1); assay: EMSA; conditions: EMSA: 20 mM Tris-HCl, 100 mM NaCl, 5% glycerol, 30 min on ice, pH not stated; native PAGE in 0.5x TBE at 4 C. Footprinting: DNase I 0.1 Kunitz units/uL, 4 min …
T1 sequence: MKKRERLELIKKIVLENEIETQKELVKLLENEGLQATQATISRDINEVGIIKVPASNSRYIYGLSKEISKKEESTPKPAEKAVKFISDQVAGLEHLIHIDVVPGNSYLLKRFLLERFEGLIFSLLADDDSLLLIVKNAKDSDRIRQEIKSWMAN

AhrC [2] = biological target: T2, AhrC (Streptococcus mutans UA159, UniProt Q8DVB1 1-154); assay: EMSA; EMSA: 20 mM Tris-HCl, 100 mM NaCl, 5% glycerol, 30 min on ice, pH not stated; native PAGE in 0.5x TBE at 4 C. Footprinting: DNase I 0.1 Kunitz units/uL, 4 min at 37 C; conditions: protein: recombinant; tags: 6xHis (pET28a, NotI/XhoI); chain copies: 6; label: FAM
T2 sequence: T1 sequence

AhrC [3] = biological target: T2, AhrC; assay: EMSA; conditions: protein: recombinant; tags: 6xHis (pET28a, NotI/XhoI); chain copies: 6; label: FAM

With “AATAATTTTGTTATCATGAGTTAAAGTATCTAGTTATAAACTAGGTACTTTTTACATTTTATTCATTTCTAGCTTGACTTATGAATAAATATACGATAAAATAAACAACATCTTTATAAAGGAAGTGAATAAGT (double strand) [argC promoter (argCp)]” the binding [1] was “binds”.

B1: argC p1 (dsDNA)
DNA 1: CATTTCTAGCTTGACTTATGAATAAATATACGATAAA
DNA 2: TTTATCGTATATTTATTCATAAGTCAAGCTAGAAATG
B1: binds (AhrC [2]).

B2: argC p1mut (dsDNA)
DNA 1: CATTTCTAGCTTGCCCCCCGACCCCCCATACGATAAA
DNA 2: TTTATCGTATGGGGGGTCGGGGGGCAAGCTAGAAATG
B2: no binding (AhrC [3]).

Source: publication PMC9430756, “AhrC Negatively Regulates Streptococcus mutans Arginine Biosynthesis”
